Test results taken from paper PMC3160658.

Legend:
[1] = target: T1, RAD52 Y104D (Homo sapiens, UniProt P43351 1-418, Y104D); experiment: EMSA
T1 sequence: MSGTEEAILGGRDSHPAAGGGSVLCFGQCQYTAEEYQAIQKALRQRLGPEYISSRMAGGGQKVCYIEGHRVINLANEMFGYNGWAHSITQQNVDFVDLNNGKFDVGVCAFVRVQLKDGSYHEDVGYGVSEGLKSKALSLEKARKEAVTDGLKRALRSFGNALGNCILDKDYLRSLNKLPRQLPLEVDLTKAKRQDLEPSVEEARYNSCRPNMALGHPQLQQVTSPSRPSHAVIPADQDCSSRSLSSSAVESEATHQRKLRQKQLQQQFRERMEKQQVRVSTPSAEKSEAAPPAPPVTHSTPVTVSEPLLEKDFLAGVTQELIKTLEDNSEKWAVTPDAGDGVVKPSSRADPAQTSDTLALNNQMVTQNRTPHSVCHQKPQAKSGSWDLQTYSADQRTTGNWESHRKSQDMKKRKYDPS

[2] = target: RAD52;RPA (Homo sapiens;human?, UniProt P43351;P27694;P15927;P35244 1-418;1-616;1-270;1-121, |); experiment: FRET titration
Sequence of RAD52;RPA (P27694 whole entry, chain 2 of 3): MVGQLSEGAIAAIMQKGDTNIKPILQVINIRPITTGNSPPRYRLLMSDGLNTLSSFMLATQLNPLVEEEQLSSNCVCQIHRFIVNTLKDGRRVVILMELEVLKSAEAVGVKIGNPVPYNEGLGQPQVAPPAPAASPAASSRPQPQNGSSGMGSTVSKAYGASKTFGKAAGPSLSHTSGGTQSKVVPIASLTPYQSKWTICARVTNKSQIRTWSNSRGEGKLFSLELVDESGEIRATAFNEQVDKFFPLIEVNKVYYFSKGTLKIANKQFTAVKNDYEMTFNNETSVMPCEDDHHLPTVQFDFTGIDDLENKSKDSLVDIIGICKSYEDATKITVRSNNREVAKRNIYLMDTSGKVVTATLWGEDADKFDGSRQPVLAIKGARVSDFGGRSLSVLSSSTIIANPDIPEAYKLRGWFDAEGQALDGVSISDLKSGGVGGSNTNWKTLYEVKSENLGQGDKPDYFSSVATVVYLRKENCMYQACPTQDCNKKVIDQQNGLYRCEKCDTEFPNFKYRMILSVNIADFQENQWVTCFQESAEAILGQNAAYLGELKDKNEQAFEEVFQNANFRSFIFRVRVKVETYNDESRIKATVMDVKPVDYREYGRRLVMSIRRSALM
Sequence of RAD52;RPA (P15927 whole entry, chain 3 of 3): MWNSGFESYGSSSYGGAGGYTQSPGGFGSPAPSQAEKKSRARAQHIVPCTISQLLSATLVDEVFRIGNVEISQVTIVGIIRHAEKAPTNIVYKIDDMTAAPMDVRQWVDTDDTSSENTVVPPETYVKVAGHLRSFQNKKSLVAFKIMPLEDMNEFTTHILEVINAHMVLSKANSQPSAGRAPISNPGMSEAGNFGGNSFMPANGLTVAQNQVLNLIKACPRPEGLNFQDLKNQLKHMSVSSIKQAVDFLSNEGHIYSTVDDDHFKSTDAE
Sequence of RAD52;RPA (P35244 whole entry, chain 4 of 3): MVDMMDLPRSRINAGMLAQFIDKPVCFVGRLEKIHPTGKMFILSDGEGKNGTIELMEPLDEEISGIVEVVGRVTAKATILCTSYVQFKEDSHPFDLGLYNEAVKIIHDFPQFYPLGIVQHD

TTTTTTTTTTTTTTTTTTTTTTTTTTTTTT (ssDNA) [Cy5-(dT)30-Cy3]
binding result [1]: binds | binding result [2]: binds
